In US20200095324A1 (POTENZA THERAPEUTICS, published 2020):

T1: human TIGIT (human, UniProt Q495A1 22-141)
T1 construct: Expressed in HEK-293 cells and secreted as soluble protein; also called hTIGIT; monomeric wild type human TIGIT; not shown: His tag (purified on Ni-NTA, called 'human TIGIT HIS')
T1 sequence: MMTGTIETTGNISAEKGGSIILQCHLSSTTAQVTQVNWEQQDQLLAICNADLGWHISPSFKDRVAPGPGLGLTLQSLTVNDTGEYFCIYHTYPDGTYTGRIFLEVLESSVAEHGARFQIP


Tests used:
human TIGIT [1] = biological target: T1, human TIGIT; assay: BLI (Octet), antibody captured on anti-human Fc sensors
Procedure: (§1) To identify the epitope for MAB10 binding to human TIGIT, 18 alanine single point mutations were made. Proteins were expressed in HEK-293 cells, secreted as soluble protein, purified on Ni-NTA resin, and characterized by SDS-PAGE. Binding was assessed by Bio-Layer Interferometry (BLI) using the Octet platform. MAB10 was captured on anti-human Fc sensors, washed, and exposed to either monomeric wild type human TIGIT or to one of a selection of point mutants.
To identify the epitope for MAB2, MAB15, and MAB21 binding to human TIGIT, binding to 7 alanine single point mutations was assessed using BLI as described in the preceding paragraph.

human TIGIT [2] = biological target: T1, human TIGIT; assay: BLI (Octet), MAB10 captured on anti-human Fc sensors, monomeric wild type human TIGIT in solution
Procedure: as §1

human TIGIT [3] = biological target: T1, human TIGIT; assay: complex formation, size exclusion chromatography and crystallisation
Procedure: The binding epitope of MAB10 was also identified through crystallographic studies. MAB10 Fab was complexed with human TIGIT, purified by size exclusion chromatography, and concentrated to 10 mg/ml. Crystals were grown out of 14% PEG4000, 0.1M MES pH 6, 10 mM β-nicotinamide adenine dinucleotide hydrate, 0.5% n-dodecyl-β-D-maltoside. X-ray data were collected at Argonne National Laboratories (GM/CA CAT 23ID-D) and processed using CCP4 (Collaborative Computational Project No. 4, Software for Macromolecular X-Ray Crystallography) and Phenix (Python-based Hierarchical ENvironment for Integrated Xtallography). TIGIT residues within a contact distance of 3.8 Å from the heavy and light chain were considered part of the binding epitope and include T55, Q56, L65, D72, L73, H76, I77, S78, P79 and H111.

| Binder | binding result (human TIGIT [1]) | other results |
| --- | --- | --- |
| MAB2 (antibody, human IgG4 S228P, kappa, V domains shown, also called MAB2-IgG4) VH: QLQLQESGPGLVKPSETLSLTCTVSGGSISSSKYYWGWIRQPPGKGLEWIGSIYYSGSTFYNPSLKSRVTISVDTSKNQFSLKLSSVTAADTAVYYCARDANYYGSAWAFDPWGQGTLVTVSS VL: EIVLTQSPATLSLSPGERATLSCRASQSVSSYLAWYQQKPGQAPRLLIYDASNRATGIPARFSGSGSGTDFTLTISSLEPEDFAVYYCQQHFNLPTFGGGTKVEIKR | binds | – |
| MAB10 (antibody, human IgG4 S228P, kappa, V domains shown, also called MAB10-IgG4; anti-TIGIT antibody MAB10) VH: QVQLQESGPGLVKPSQTLSLTCTVSGGSIESGLYYWGWIRQPPGKGLEWIGSIYYSGSTYYNPSLKSRATISVDTSKNQFSLKLSSVTAADTAVYYCARDGVLALNKRSFDIWGQGTMVTVSS VL: EIVLTQSPGTLSLSPGERATLSCRASQSVSSSYLAWYQQKPGQAPRLLIYGASSRATGIPDRFSGSGSGTDFTLTISRLEPEDFAVYYCQQHTVRPPLTFGGGTKVEIKR | – | binding result (human TIGIT [2]): binds |
| MAB10 Fab (Fab, V domains shown, Fab of MAB10 used for crystallography) VH: QVQLQESGPGLVKPSQTLSLTCTVSGGSIESGLYYWGWIRQPPGKGLEWIGSIYYSGSTYYNPSLKSRATISVDTSKNQFSLKLSSVTAADTAVYYCARDGVLALNKRSFDIWGQGTMVTVSS VL: EIVLTQSPGTLSLSPGERATLSCRASQSVSSSYLAWYQQKPGQAPRLLIYGASSRATGIPDRFSGSGSGTDFTLTISRLEPEDFAVYYCQQHTVRPPLTFGGGTKVEIK | – | binding result (human TIGIT [3]): binds |

Further lines, with some results ahead:

| binding result (human TIGIT [1]) | Binder | other results |
| --- | --- | --- |
| binds | MAB15 (antibody, human IgG4 S228P, kappa, V domains shown, also called MAB15-IgG4) VH: QVQLVQSGAEVKKPGASVKVSCKASGYTFREYYMHWVRQAPGQGLEWMGIINPSIGLTSYARKFQGRVTMTRDTSTSTVYMELSSLRSEDTAVYYCARGGRTTWIGAFDIWGQGTMVTVSS VL: EIVMTQSPATLSVSPGERATLSCRASQSVSSNLAWYQQKPGQAPRLLIYGASTRATGIPARFSGSGSGTEFTLTISSLQSEDFAVYYCQQYVVWPPLTFGGGTKVEIKR | – |
| binds | MAB21 (antibody, human IgG4 S228P, kappa, V domains shown, also called MAB21-IgG4) VH: QVQLVQSGAEVKKPGASVKVSCKASGYTFTSHYMGWVRQAPGQGLEWMGIINPSMGATSYTQKFRGRVTMTRDTSTSTVYMELSSLRSEDTAVYYCARLHVSGSYYPAYLDYWGQGTMVTVSS VL: EIVMTQSPATLSVSPGERATLSCRASQSVSSNLAWYQQKPGQAPRHLIYGASTRATGIPARFSGSGSGTEFTLTISSLQSEDFAVYYCQQYIVFPWTFGGGTKVEIKR | – |
